Measured values reported in patent US20080267971A1.
Blank lines part the entries; values can stand above or below the binder they belong to.

Experiments:
[1] = biological target: human Ang-2443 (human) (UniProt O15123); experiment: ELISA
[2] = biological target: human Ang-2 H375Q (human) (UniProt O15123); experiment: ELISA
[3] = biological target: Mouse/Human chimeric Ang-2 with the human StuI-TfiI fragment (mouse/human chimera) (UniProt O35608); experiment: ELISA
[4] = biological target: human Ang-2 V345M (human) (UniProt O15123); experiment: ELISA
[5] = biological target: T1, Human Ang-1/2 BsmI chimeric molecule (human); experiment: ELISA
T1 sequence: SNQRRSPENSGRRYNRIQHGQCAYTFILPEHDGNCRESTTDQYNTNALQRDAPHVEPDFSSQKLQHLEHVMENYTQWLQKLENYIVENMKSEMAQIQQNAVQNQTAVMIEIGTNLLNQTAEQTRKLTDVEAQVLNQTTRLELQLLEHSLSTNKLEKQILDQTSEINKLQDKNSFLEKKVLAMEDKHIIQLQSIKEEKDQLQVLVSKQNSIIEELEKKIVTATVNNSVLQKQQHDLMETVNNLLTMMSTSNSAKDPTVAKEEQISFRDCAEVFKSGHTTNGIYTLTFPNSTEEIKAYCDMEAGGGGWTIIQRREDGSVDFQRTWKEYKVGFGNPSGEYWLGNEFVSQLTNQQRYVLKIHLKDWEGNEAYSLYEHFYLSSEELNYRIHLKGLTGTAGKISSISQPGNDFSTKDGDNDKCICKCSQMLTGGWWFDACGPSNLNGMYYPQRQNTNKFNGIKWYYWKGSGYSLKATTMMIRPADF

[6] = biological target: Mouse/Human Ang-2 StuI chimeric molecule (mouse; human) (UniProt O35608); experiment: ELISA
[7] = biological target: human Ang-2 changed at positions 365 and 367 (human) (UniProt O15123); experiment: ELISA
[8] = biological target: human Angiopoietin-2 (human) (UniProt O15123); experiment: inhibition of rhAng-2 binding to its receptor
[9] = biological target: mouse Angiopoietin-2 (mouse) (UniProt O35608); experiment: ELISA; member tied by Table 16

B1: mAb 5.2.1 (antibody, part only; not given: light chain, V domains shown, part only)
VH: QVQLVESGGGVVQPGRSLRLSCAASGFTFSSYGMHWVRQAPGKGLEWVAVIWFDGFNKYYADSVKGRFTISRDNSKNTLYLQMNSLRAEDTAVYHCARDRGYSGYDHYYGMDVWGQGTTVTVSSA
- % of binding to human Ang-2 [1]: 100%
- % of binding to human Ang-2 [2]: 100%
- % of binding to human Ang-2 [3]: 100%
- % of binding to human Ang-2 [4]: 100%
- % of binding to human Ang-2 [5]: 100%
- % of binding to human Ang-2 [6]: 100%
- % of binding to human Ang-2 [7]: 100%
- OD650 in inhibition assay [8]: 0.069 OD650
- % of immunoreactivity on human Ang-2 [9]: 100%

B3: mAb 3.28.1 (antibody, part only; not given: light chain, V domains shown, part only)
VH: EVQLVESGGGLVQPGGSLRLSCAASGFTFSSSWMSWVRQAPGKGLEWVANIKQDGSDKYYVDSVKGRFTISRDNAKNSLYLQMNSLRAEDTAVYYCVRDKGSGWFDYWGQGTLVTVSSA
- % of binding to human Ang-2 [1]: 100%
- % of binding to human Ang-2 [2]: 100%
- % of binding to human Ang-2 [3]: 31%
- % of binding to human Ang-2 [4]: 100%
- % of binding to human Ang-2 [5]: 100%
- % of binding to human Ang-2 [6]: 100%
- % of binding to human Ang-2 [7]: 100%
- OD650 in inhibition assay [8]: 0.0588 OD650

B4: mAb 5.28.1 (antibody, V domains shown)
VH: EVQLVESGGIVVQPGGSLRLSCAASGFTFDDYTMHWVRQTPGKGLEWVSLISWDGGSTYYADSVKGRFTISRDNSKNSLYLQMNSLRTEDTALYYCAKDIDIAVAGTGFDHWGQGTLVTVSS
VL: EIVMTQSPATLSVSPGERATLSCRASQSVTSNLAWYQQKPGQAPRLLIYGALIRATGIPARFSGSGSGTEFTLTISSLQSEDFAVYYCQQYNNWPFTFGPGTKVDIKR
- % of binding to human Ang-2 [7]: 100%

B5: mAb 5.39.1 (antibody, V domains shown)
VH: QVQLVQSGAEVTKPGASVKVSCKASGYTFTAYHMYWVRQAPGQGLEWMGWINPNSGGTNYAQKFQGRVTMTRDTSISTAYMELSRLRSDDSPVYYCARDQGIAAAGPFDYWGQGTLVTVSS
VL: EIVMTQSPATLSVSPGDRATLSCRASQSVSSNFAWYQQKPGQAPRLLIYGSSTRATGIPARFSGSGSGTEFTLTISSLQSEDFAVYYCQQYHYWWTFGQGTKVEFKR
- % of binding to human Ang-2 [7]: 100%

B9: mAb 3.3.2 (antibody, V domains shown)
VH: EVQLVESGGGLVQPGGSLRLSCAVSGFTFSSYWMSWVRQAPGKGLEWVANIKQDGSEKYYVDSVKGRFTISRDNAKNSLYLQMNSLRAEDTAVYYCARDQGIAVAGPFDYWGQGTLVTVSS
VL: EIVMTQSPATLSVSPGERATLSCRASQTVSSDLAWYQQKPGQAPRLLIYGASIRATGIPARFSGSGSGTEFTLTISSLQSEDFAVYSCQQYYNWWTFGQGTKVEIKR
- % of binding to human Ang-2 [7]: 100%

The remaining lines, values ahead:

- % of binding to human Ang-2 [7]: 100%
B2: mAb 6.3.1 (antibody, V domains shown)
VH: QVQLVQSGAEVKKPGASVKVSCKASGYTFTGYFMHWVPQAPGQGLEWMGWINPNSGGTNYAQNFQGRVTMTRDTSISTAYMELSRLRSDDTPVYYCARDPWQNWNSYFDYWGQGTLVTVSS
VL: DIQMTQSPSSLSASVGDRVTITCRASQSIRSYLNWYQQKPGKAPKVLIYAASSLQSGVPSRFSGSGSGTDFTLTISSLQPEDFATYYCQQSYSTLCSFGQGTKLEIKR

- % of binding to human Ang-2 [7]: 100%
B6: mAb 5.62.1 (antibody, V domains shown)
VH: EVQLVESGGGLVQPGGSLRLSCAASGFTFSSYWMSWVRQAPGKGLEWVANIKQDGSEKYYVDSVKGRFTISRDNAKNSLYLQMNSLRAEDTAVYYCARDPGIAVAGPFDYWGQGTLVTVSS
VL: EIVMTQSPATLSVSPGERATLSCRASQSVSSNLAWYQQKPGQAPRLLIYGAFTRATGIPARFSGSGSGTEFTLTISSLQSEDFAVYYCQQYNHWWTFGQGTKVGIKR

- % of binding to human Ang-2 [7]: 100%
B7: mAb 5.88.3 (antibody, V domains shown)
VH: EVQMVESGGGLVQPGGSLRLSCAASGFTLRSYWMSWVRQAPGKGLEWVANIKEDGSEKYHVDSVKGRFTISRDNAENSLFLQMSSLRAEDTAVYYCARDMEASAGLFDYWGQGTLVTVSS
VL: EIVMTQSPATLSVSPGERAILSCRASQSISSNLAWYQQKPGQAPRLLIYGASTRATGIPARFSGSGSGTEFTLTISSLQSEDFAVYYCQQYNYWWTFGQGTKVEIKR

- % of binding to human Ang-2 [7]: 100%
B8: mAb 5.86.1 (antibody, V domains shown)
VH: QVQLVQSGAEVKKPGASVKVSCKASGYTFTGYHMYWVRQAPGQGLEWLGWINPNSGGTNYAQKFQGRVTMTRDTSISTAYMELSRLRSDDTAVYYCVRDQGIAAAGPFDYWCQGTLVTVSS
VL: DIRMTQSPSSLSASVGDRVTITCRASQRISTYLNWYQQKPGKAPKFLIYAASSLQSGVPSRFSGSGSGTDFTLTISSLQPEDFATYYCQQSYTTPFTFGPGTKVDIKR
